For test [1], the target named is T1, monkey Fc-PD-1 protein (monkey, UniProt Q15116 25-170 (human entry)).
T1 construct: not shown: Fc part not described
T1 chain: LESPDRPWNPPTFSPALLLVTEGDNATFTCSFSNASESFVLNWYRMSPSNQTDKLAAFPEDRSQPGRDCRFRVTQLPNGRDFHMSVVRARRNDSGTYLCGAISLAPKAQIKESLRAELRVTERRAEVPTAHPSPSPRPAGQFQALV
The experiment in a line: Biacore, monkey Fc-PD-1.

Test [2] has as its target T2, PD-1 M14.
T2 PD-1 mutant: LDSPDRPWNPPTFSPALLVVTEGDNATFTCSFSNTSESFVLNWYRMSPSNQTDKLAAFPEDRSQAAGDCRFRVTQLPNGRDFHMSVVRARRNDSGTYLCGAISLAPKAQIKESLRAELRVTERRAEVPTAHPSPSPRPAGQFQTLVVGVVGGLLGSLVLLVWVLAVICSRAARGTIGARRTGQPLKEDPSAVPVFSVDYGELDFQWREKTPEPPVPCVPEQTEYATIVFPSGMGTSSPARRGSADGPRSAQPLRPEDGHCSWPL
Description: flow cytometry, HeLa cells transiently transfected with PD-1 M14, PE-labeled anti-mouse IgG secondary Ab.

Test [3] concerns the target T3, recombinant human Fc-PD-1 protein (human, UniProt Q15116 25-170).
T3 construct: may be the same protein as the PD-1 Fc fusion of the Luminex assays; also called recombinant human PD-1 in an Fc fusion construct; not shown: Fc part not described
The experiment in a line: Biacore, Fab, human Fc-PD-1.

Test [4] deals with T1, monkey Fc-PD-1 protein. Description: Biacore, Fab, monkey Fc-PD-1.

The text below walks through data of patent US20220259315A1 (MABQUEST, published 2022).

T3 sequence (Q15116 25-170): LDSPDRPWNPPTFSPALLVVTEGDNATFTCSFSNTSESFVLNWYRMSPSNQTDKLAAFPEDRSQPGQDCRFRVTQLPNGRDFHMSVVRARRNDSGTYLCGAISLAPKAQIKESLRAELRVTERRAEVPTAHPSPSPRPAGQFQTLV

B1: 137F2 (antibody, V domains shown)
VH: QVQLQQPGAELVRPGTSVKMSCKAAGYTFTNYWIGWIKQRPGHGLEWIGDIYPGGGYTNYNEKFKGKATLTADTSSSTAYMQVSSLTSEDTGIYYCARGYDFVLDRWGQGTSVTVSS
VL: DIVMSQSPSSLAVSTGEKVTMTCKSSQSLFNSETQKNYLAWYQQKPGQPPKLLIFWASTRESGVPDRFLGSGSGTDFTLTISSVQAEDLAVYYCKQSYTLRTFGGGTKLEIK
notes: also called mouse 137F2A11
In test [1], B1 had a Kd of 2.22 nM, a koff of 0.000305 s⁻¹ and an association rate constant (kon) of 138000 M⁻¹ s⁻¹. Moreover, the binding result in test [2] was “binds”.

B2: A35797 (Fab, V domains shown)
VH: EVQLVQSGAEVKKHGESLKISCKGSGYSFTNYWIGWVRQATGQGLEWMGDIYPGGGYTNYNEKFKGRVTITADKSTSTAYMELSSLRSEDTAVYYCARGYDFVLDRWGQGTTVTVSS
VL: DIQMTQSPSSLSASVGDRVTITCKSSQSLFNSETQKNYLAWYQQKPGQPPKLLIYWASTRESGVPSRFSGSGSGTDFTLTISSLQPEDFATYYCKQSYTLRTFGGGTKLEIK
notes: humanized Fab clone of 137F2; also called humanized antibody A35797
Regarding B2, in test [3], the Kd is 0.802 nM, the koff came out at 8.02e-05 s⁻¹ and the kon was 100000 M⁻¹ s⁻¹. In test [4], this molecule had a Kd of 1.13 nM, a koff of 0.000106 s⁻¹ and a kon of 93700 M⁻¹ s⁻¹.
